Reference: paper PMC7113277

Target: recombinant EBV LMP2A N-terminal cytoplasmic domain (LMP2A-NCD), His6-tagged (Epstein-Barr virus) (UniProt P13285)
Test: SPR; BIAcore T200; LMP2A-NCD immobilised on Sensor Chip CM5; affibodies flowed at 2.5-20 μM; global fit, one-to-one Langmuir binding model

Chain of UniProt P13285 (P13285 1-119): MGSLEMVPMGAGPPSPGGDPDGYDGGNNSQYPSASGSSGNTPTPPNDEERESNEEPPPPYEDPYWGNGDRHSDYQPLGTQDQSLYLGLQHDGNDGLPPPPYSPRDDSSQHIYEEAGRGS

ZWT affibody (wild SPA-Z scaffold) (designed binder)
koff: 5.96e-05 s⁻¹
